What was measured:
[1] = target: human hair (hair keratin) (human); test: quantitative hair binding test, anti-polyHis peroxidase conjugate, TMB
[2] = target: human skin (skin keratin) (human); test: quantitative skin binding test on human keratinocytes, after 10% strength SDS treatment
[3] = target: human skin (skin keratin) (human); test: quantitative skin binding test on human keratinocytes in microtiter plates, anti-His antibody, TMB
[4] = target: human hair (hair keratin) (human); test: quantitative hair binding test, after 10% strength SDS treatment

Absorption at 405 nm (A405 nm (standardized to the surface)) [1]	Absorption at 405 nm (A405 nm (standardized to the surface)) [2]	Absorption at 405 nm (A405 nm (standardized to the surface)) [3]	Absorption at 405 nm (A405 nm (standardized to the surface)) [4]	Binder
0.88	3.15	3.69	0.62	KBD-D (keratin-binding domain of human plakophilin, SEQ ID No.: 168) (protein) MRGSHHHHHHGSACELGTMNHSPLKTALAYECFQDQDNSTLALPSDQKMKTGTSGRQRVQEQVMMTVKRQKSKSSQSSTLSHSNRGSMYDGLADNYNYGTTSRSSYYSKFQAGNGSWGYPIYNGTLKREPDNRRFSSYSQMENWSRHYPRGSCNTTGAGSDICFMQKIKASRSEPDLYCDPRGTLRKGTLGSKGQKTTQNRYSFYSTCSGQKAIKKCPVRPPSCASKQDPVYIPPISCNKDLSFGHSRASSKICSEDIECSGLTIPKAVQYLSSQDEKYQAIGAYYIQHTCFQDESAKQQVYQLGGICKLVDLLRSPNQNVQQAAAGALRNLVFRSTTNKLETRRQNGIREAVSLLRRTGNAEIQKQLTGLLWNLSSTDELKEELIADALPVLADRVIIPFSGWCDGNSNMSREVVDPEVFFNATGCLRNLSSADAGRQTMRNYSGLIDSLMAYVQNCVAASRCDDKSVENCMCVLHNLSYRLDAEVPTRYRQLEYNARNAYTEKSSTGCFSNKSDKMMNNNYDCPLPEEETNPKGSGWLYHSDAIRTYLNLMGKSKKDATLEACAGALQNLTASKGLMSSGMSQLIGLKEKGLPQIARLLQSGNSDVVRSGASLLSNMSRHPLLHRVMGNQVFPEVTRLLTSHTGNTSNSEDILSSACYTVRNLMASQPQLAKQYFSSSMLNNIINLCRSSASPKAAEAARLLLSDMWSSKELQGVLRQQGFDRNMLGTLAGANSLRNFTSRF
–	0.185	0.93	–	KBD-B (keratin-binding domain B of human desmoplakin, SEQ ID No.: 166) (protein) MRGSHHHHHHGSACELEPHTGLLLLSVQKRSMSFQGIRQPVTVTELVDSGILRPSTVNELESGQISYDEVGERIKDFLQGSSCIAGIYNETTKQKLGIYEAMKIGLVRPGTALELLEAQAATGFIVDPVSNLRLPVEEAYKRGLVGIEFKEKLLSAERAVTGYNDPETGNIISLFQAMNKELIEKGHGIRLLEAQIATGGIIDPKESHRLPVDIAYKRGYFNEELSEILSDPSDDTKGFFDPNTEENLTYLQLKERCIKDEETGLCLLPLKEKKKQVQTSQKNTLRKRRVVIVDPETNKEMSVQEGVDLQPSLIS
